The values below come from US20250353901A1 (ON TARGET MOLECULES BIOTECH, published 2025).

This assay addresses T1, synthetic peptide HRCLQQLCCRKKPG
T1 construct: Variant of P2X7 residues 491-504, used as the counter-screen peptide; also called the wild type SNP at position 496 which is Q
T1 peptide: HRCLQQLCCRKKPG
In words: in-vitro cross-reaction of hybridoma monoclonal antibodies against the synthetic peptide. An excerpt: For the generation of monoclonal antibodies, hybridoma cell lines expressing the desired antibody were produced. Techniques for the production of monoclonal antibodies are well known in the art. Animals were presented with the carboxyl-terminal antigen sequence […] conjugated to KHL. Murine hybridoma cells were produced and screened according to standard protocols. Monoclonal antibodies harvested after clonal selection of the hybridomas expressed from the variable regions of the monoclonal antibodies raised against the antigen, were tested for their capacity to bind this antigen.

B1: Clone 3: 6H5.C10 Isotype Ig1 k (antibody, V domains shown)
VH: QVTLKESGPGILQPSQTLSLTCSFSGFSLSTFGMGVGWIRQPSGKGLEWLAHIWWDDYKYYNPALKSRLTISKDTSKNQVFLKIANVDTADTATYYCARISYYGSSYLDYWGQGTTLTVSS
VL: DVVMTQTPLSLPVSLGDQASISCRSSQSLVHSNGNTYLHWYLQKPGQSPKLLIYKVSNRFSGVPDRFSGSGSGTDFTLKISRVEAEDLGVYFCSQTTHVPYTFGGGTKLEIKR
notes: Murine hybridoma monoclonal antibody, isotype printed as 'Ig1 k'
Turning to B1, the binding result is “no binding”.
